The target in test [1] is T1, hGIPR (Homo sapiens, UniProt P48546).
T1 sequence (P48546 22-466): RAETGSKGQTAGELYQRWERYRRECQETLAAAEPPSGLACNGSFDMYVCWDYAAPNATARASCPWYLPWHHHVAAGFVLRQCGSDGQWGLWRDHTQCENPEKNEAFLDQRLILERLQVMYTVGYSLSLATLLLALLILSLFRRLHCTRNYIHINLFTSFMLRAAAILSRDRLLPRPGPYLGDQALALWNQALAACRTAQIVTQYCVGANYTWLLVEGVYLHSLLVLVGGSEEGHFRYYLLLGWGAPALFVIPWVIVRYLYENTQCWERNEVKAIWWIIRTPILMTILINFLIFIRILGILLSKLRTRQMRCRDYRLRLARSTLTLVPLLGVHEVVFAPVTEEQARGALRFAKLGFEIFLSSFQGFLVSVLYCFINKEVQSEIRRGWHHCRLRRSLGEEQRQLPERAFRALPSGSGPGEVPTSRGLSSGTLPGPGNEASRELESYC
Description: Functional cAMP activation in the presence of 0.1% casein (no HSA). Format: cell-based. The settings on record: in the presence of 0.1% casein (no HSA); geometric mean; read-out: Relative cAMP EC50, hGIPR.

In test [2] the target is hGcgR (Homo sapiens, UniProt P47871). Described as above. It counts as cell-based. The settings on record: in the presence of 0.1% casein (no HSA); geometric mean; read-out: Relative cAMP EC50, hGcgR.
For test [3], the target named is human GcgR (Homo sapiens, UniProt P47871). Description: Functional cAMP activity in the presence of 1% HSA. The settings on record: read-out: cAMP Rel EC50, hGcgR. Format: cell-based.
Test [4] addresses T2, hGLP-1R (Homo sapiens, UniProt P43220). Kind of test: Functional cAMP activation in the presence of 0.1% casein (no HSA). It counts as cell-based. The settings on record: in the presence of 0.1% casein (no HSA); geometric mean; read-out: Relative cAMP EC50, hGLP-1R.
Test [5] has as its target T1, hGIPR. Description: Functional cAMP activity in the presence of 1% HSA. Format: cell-based. The settings on record: read-out: cAMP Rel EC50, hGIPR.
For test [6], the target named is human glucagon receptor (human) (UniProt P47871). Kind of test: cell-based or functional assay.
For test [7], the target named is T3, human GIP receptor (human) (UniProt P48546).
T3 sequence (looked up): T1 sequence (P48546 22-466)
Kind of test: cell-based or functional assay.

Test [8] has as its target T2, hGLP-1R. Kind of test: cell-based or functional assay.

Residue numbers refer to the chain shown, from its start. Starred links: 1 amine or outer side, 2 acyl side, 3 side chain; linkers in the order of their positions; H or OH if unused. Non-standard residues stand in square brackets, D forms with d. Groups on a side chain read outwards from the residue. *: point of attachment. C18 diacid = O=C(O)CCCCCCCCCCCCCCCCC(=O)*; γGlu = O=C(O)[C@H](CCC(=O)[*:2])N[*:1]; αMe4Pal = C[C@](N)(Cc1ccncc1)C(=O)O; 4Pal = N[C@@H](Cc1ccncc1)C(=O)O; αMeL = CC(C)C[C@](C)(N)C(=O)O; Orn = NCCC[C@H](N)C(=O)O; Aib = CC(C)(N)C(=O)O
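Wherever Relative cAMP EC50, hGIPR is given: intracellular cAMP rise after 30 min at 37 °C read by HTRF against a standard curve, scaled between buffer alone (0%) and top control ligand concentration (100%), four-parameter fit.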
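Wherever Relative cAMP EC50, hGLP-1R is given: intracellular cAMP rise after 30 min at 37 °C read by HTRF, normalized between buffer only (0%) and maximal control ligand (100%), four-parameter variable-slope fit.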
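Wherever Relative cAMP EC50, hGcgR is given: intracellular cAMP rise after 30 min at 37 °C, read by HTRF against a cAMP standard curve, scaled from buffer only (0%) to maximal control ligand response (100%).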

T2 sequence (P43220 24-463): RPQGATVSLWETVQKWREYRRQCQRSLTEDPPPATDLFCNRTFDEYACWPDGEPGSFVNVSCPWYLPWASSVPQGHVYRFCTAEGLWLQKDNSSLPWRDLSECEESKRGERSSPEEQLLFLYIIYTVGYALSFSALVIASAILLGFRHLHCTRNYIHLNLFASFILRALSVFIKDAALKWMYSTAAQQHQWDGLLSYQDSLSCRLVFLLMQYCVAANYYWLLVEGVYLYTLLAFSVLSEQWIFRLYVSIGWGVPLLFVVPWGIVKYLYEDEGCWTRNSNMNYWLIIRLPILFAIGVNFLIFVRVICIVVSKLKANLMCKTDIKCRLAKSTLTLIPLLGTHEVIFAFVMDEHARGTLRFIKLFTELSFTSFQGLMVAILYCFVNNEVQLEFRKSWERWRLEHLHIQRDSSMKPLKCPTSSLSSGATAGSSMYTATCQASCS
human glucagon receptor (human), sequence (P47871 26-477): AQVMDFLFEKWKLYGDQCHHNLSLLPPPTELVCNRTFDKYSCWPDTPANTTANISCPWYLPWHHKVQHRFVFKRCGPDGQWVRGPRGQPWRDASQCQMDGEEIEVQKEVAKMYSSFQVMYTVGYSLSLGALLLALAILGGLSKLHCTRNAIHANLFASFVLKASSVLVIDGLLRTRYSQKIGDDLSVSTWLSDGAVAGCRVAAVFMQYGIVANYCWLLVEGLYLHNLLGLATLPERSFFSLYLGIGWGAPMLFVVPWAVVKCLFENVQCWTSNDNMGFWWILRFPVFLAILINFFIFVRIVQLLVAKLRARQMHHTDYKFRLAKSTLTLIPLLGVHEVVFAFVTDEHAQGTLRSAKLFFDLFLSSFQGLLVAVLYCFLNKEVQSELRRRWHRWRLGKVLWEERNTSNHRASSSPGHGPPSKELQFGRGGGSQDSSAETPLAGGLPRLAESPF
hGcgR, sequence (P47871 26-477): as above
human GcgR, sequence (P47871 26-477): as above

As to “H-Y[Aib]QGTFTSD[4Pal]SQ[αMeL]LD[Orn]K([γGlu-γGlu-C18 diacid])AQ[αMe4Pal]AFIEYLLAGGPSSGAPPPSGSEE-NH2 [Example 1056]”, the EC50 (in general, the midpoint of the concentration-response curve) in test [1] was found to be 0.0929 nM; in test [2], 3.98 nM; in test [3], 1650 nM; in test [4], 4.25 nM; in test [5] it was 29.6 nM.

B1: Example 1142 (peptide)
chain: YXQGTXTSDXXIXLDXKAQXEFIEXLIEGGPSSGAPPPTGE
modifications: Aib, αMeF(2F), 4Pal, αMeS, αMeL, Orn, Me4Pal, αMeY, acyl, amide; synthetic construct; SITE 2: note = 2-Aminoisobutyric Acid; SITE 6: note = alpha-methyl-2-fluoro-L-phenylalanine; SITE 10: note = 3-(4-Pyridyl)-L-alanine; SITE 11: note = alpha-methyl-L-serine; SITE 13: note = alpha-methyl-leucine; SITE 16: note = L-ornithine; SITE 17: note = Lysine is chemically mo
Take B1: the Relative cAMP EC50 in test [6] was 1.34 nM; in test [7], 0.00706 nM; in test [8] it was 0.329 nM.

B2: Example 1144 (peptide)
chain: B1 chain with T39G
modifications: non-natural residues; K acylated AEEA-γGlu-C18 diacid; C-amide; synthetic construct; SITE 2: note = 2-Aminoisobutyric Acid; SITE 6: note = alpha-methyl-2-fluoro-L-phenylalanine; SITE 10: note = 3-(4-Pyridyl)-L-alanine; SITE 11: note = alpha-methyl-L-serine; SITE 13: note = alpha-methyl-leucine; SITE 16: note = L-ornithine; SITE 17: note = Lysine is chemically mo
Consider B2, for which the Relative cAMP EC50 came out at 1.32 nM in test [6], 0.00649 nM in test [7] and 0.282 nM in test [8].

B3: Example 1148 (peptide)
chain: B1 chain with T39E
modifications: non-natural residues, AEEA-γGlu-diacid acylated Lys, C-terminal amide; synthetic construct; SITE 2: note = 2-Aminoisobutyric Acid; SITE 6: note = alpha-methyl-2-fluoro-L-phenylalanine; SITE 10: note = 3-(4-Pyridyl)-L-alanine; SITE 11: note = alpha-methyl-L-serine; SITE 13: note = alpha-methyl-leucine; SITE 16: note = L-ornithine; SITE 17: note = Lysine is chemically mo
In the case of B3, the values for the Relative cAMP EC50 in test [6], in test [7] and in test [8] were 1.6 nM, 0.00801 nM and 0.299 nM, respectively.

B4: Example 1146 (peptide)
chain: B1 chain with T39E, G40S
modifications: non-natural residues, acylated Lys, C-terminal amide; synthetic construct; SITE 2: note = 2-Aminoisobutyric Acid; SITE 6: note = alpha-methyl-2-fluoro-L-phenylalanine; SITE 10: note = 3-(4-Pyridyl)-L-alanine; SITE 11: note = alpha-methyl-L-serine; SITE 13: note = alpha-methyl-leucine; SITE 16: note = L-ornithine; SITE 17: note = Lysine is chemically mo
Turning to B4, the Relative cAMP EC50 in test [6] turned out to be 1.22 nM; in test [7], 0.00628 nM; in test [8] it was 0.281 nM.

B5: Example 1134 (peptide)
chain: YXQGTFTSDXXQXLDXKAQXQFIQXLIEXGPSSGAPPPSGGGE
modifications: not fully specified; N-methyl-Tyr, non-natural residues, acylated Lys (γGlu-C18 diacid), C-terminal amide; synthetic construct; SITE 1: note = N-methyl-tyrosine; SITE 2: note = 2-Aminoisobutyric Acid; SITE 10: note = 3-(4-Pyridyl)-L-alanine; SITE 11: note = alpha-methyl-L-serine; SITE 13: note = alpha-methyl-leucine; SITE 16: note = L-ornithine; SITE 17: note = Lysine is chemically modified …
In the case of B5, the Relative cAMP EC50 worked out at 2.57 nM in test [6], 0.0391 nM in test [7] and 0.957 nM in test [8].

B6: Example 1136 (peptide)
chain: B5 chain with Q12I
modifications: not fully specified; non-natural residues (Aib, 4Pal, αMeS, Orn, Me4Pal); lipidated Lys; C-amide; synthetic construct; SITE 2: note = 2-Aminoisobutyric Acid; SITE 10: note = 3-(4-Pyridyl)-L-alanine; SITE 11: note = alpha-methyl-L-serine; SITE 13: note = alpha-methyl-leucine; SITE 16: note = L-ornithine; SITE 17: note = Lysine is chemically modified through conjugation of the epsilon-amino group
B6: the Relative cAMP EC50 in test [6] was 1.26 nM; in test [7] it was 0.0131 nM; in test [8], 0.453 nM.

B7: Example 1135 (peptide)
chain: B5 chain with Q12I
modifications: not fully specified; N-methyl Tyr, non-natural residues, acylation, C-terminal amide; synthetic construct; SITE 1: note = N-methyl-tyrosine; SITE 2: note = 2-Aminoisobutyric Acid; SITE 10: note = 3-(4-Pyridyl)-L-alanine; SITE 11: note = alpha-methyl-L-serine; SITE 13: note = alpha-methyl-leucine; SITE 16: note = L-ornithine; SITE 17: note = Lysine is chemically modified through conju
Take B7: the Relative cAMP EC50 amounted to 1.76 nM in test [6], 0.0126 nM in test [7] and 0.746 nM in test [8].

B8: Example 1139 (peptide)
chain: B5 chain with I27L
modifications: not fully specified; non-natural residues (Aib, 4Pal, αMeS, Iva, αMeY); lipidated K; amide; synthetic construct; SITE 2: note = 2-Aminoisobutyric Acid; SITE 10: note = 3-(4-Pyridyl)-L-alanine; SITE 11: note = alpha-methyl-L-serine; SITE 13: note = alpha-methyl-leucine; SITE 16: note = L-ornithine; SITE 17: note = Lysine is chemically modified through conjugation of the epsilon-amino group
In the case of B8, the Relative cAMP EC50 was found to be 5.29 nM in test [6], 0.0431 nM in test [7] and 1.85 nM in test [8].

B9: Example 1138 (peptide)
chain: B5 chain with I27L
modifications: not fully specified; non-natural residues, acylated Lys, C-terminal amide; synthetic construct; SITE 2: note = 2-Aminoisobutyric Acid; SITE 10: note = 3-(4-Pyridyl)-L-alanine; SITE 11: note = alpha-methyl-L-serine; SITE 13: note = alpha-methyl-leucine; SITE 16: note = L-ornithine; SITE 17: note = Lysine is chemically modified through conjugation of the epsilon-amino group
With B9, the Relative cAMP EC50 in test [6] was 1.01 nM; in test [7], 0.0491 nM; in test [8], 1.93 nM.

B10: Example 247 (peptide)
chain: YXQGTFTSDFSXXLDKKAQXAFIEYLLEXGHSSGAPPPSGE
modifications: non-natural residues; lipidated Lys AEEA-γGlu-C18 diacid; C-term amide; synthetic construct; SITE 2: note = 2-Aminoisobutyric Acid; SITE 12: note = L-ornithine; SITE 13: note = alpha-methyl-leucine; SITE 17: note = Lysine is chemically modified through conjugation of the epsilon-amino group of the Lysine side chain with (2-[2-(2-Amino-ethoxy)-ethoxy]-acetyl)-(gamma-Glu)
With B10, the cAMP Rel EC50 (in the presence of 1% HSA) worked out at 443 nM in test [6], 12.9 nM in test [7] and 291 nM in test [8].

B11: Example 266 (peptide)
chain: B10 chain with Y25W
modifications: Aib, Orn, αMeL; K acylated with (AEEA)2-γGlu-C18 diacid; C-amide; synthetic construct; SITE 2: note = 2-Aminoisobutyric Acid; SITE 12: note = L-ornithine; SITE 13: note = alpha-methyl-leucine; SITE 17: note = Lysine is chemically modified through conjugation of the epsilon-amino group of the Lysine side chain with (2-[2-(2-Amino-ethoxy)-ethoxy]-acetyl)2-(gamma-Glu)
For the molecule B11, the cAMP Rel EC50 (in the presence of 1% HSA) in test [6] stood at 923 nM; in test [7], 17.3 nM; in test [8], 583 nM.

The record behind these values is US20240270821A1, “GIP/GLP1/GCG TRI-RECEPTOR AGONISTS AND USES THEREOF” (priority 2023, published 2024).
